Measured values as given in article PMC6720793 (Molecules, 2019).

Target: human β2 microglobulin (Homo sapiens, UniProt P61769)

Kd: 46 nM
B1: CNb1 (VHH)
chain: QVQLQESGGGSVQAGGSLRLSCAASRCWFRQAPGKEREWVARYYADSVKGRFTFSQDNAKNTVYLQMDSLEPEDTATYYCCWGQGTQVTVSS
